# According to the Human Domainome abundance scans (Beltran et al. 2025):
# ± gives the uncertainty stated by the source.
# B1: Neutrophil cytosol factor 2, residues 456 to 514; numbered along this chain, P19878 (parent)
# chain: LKKGSQVEALFSYEATQPEDLEFQEGDIILVLSKVNEEWLEGECKGKVGIFPKVFVEDC
# Variants of: B1
# Assay: abundance fitness (aPCA) (normalised: wild type 0, dead -1); higher = more abundant; growth selection in yeast, the domain comes from the species named
# Conditions: Homo sapiens
row,Variant,abundance fitness
1,LKKGSQVEALFSYEATQPEDLEFQEDDIILVLSKVNEEWLEGECKGKVGIFPKVFVEDC,-0.683 ± 0.25
2,LKKGSQVEALFSYEATQPEDLEFQETDIILVLSKVNEEWLEGECKGKVGIFPKVFVEDC,-0.881 ± 0.24
3,LKKGSQVEALFSYEATQPEDLEFQEIDIILVLSKVNEEWLEGECKGKVGIFPKVFVEDC,-0.807 ± 0.23
4,LKKGSQVEALFSYEATQPEDLEFQENDIILVLSKVNEEWLEGECKGKVGIFPKVFVEDC,-0.517 ± 0.23
5,LKKGSQVEALFSYEATQPEDLEFQEYDIILVLSKVNEEWLEGECKGKVGIFPKVFVEDC,-1.03 ± 0.3
6,LKKGSQVEALFSYEATQPEDLEFQEKDIILVLSKVNEEWLEGECKGKVGIFPKVFVEDC,0.016 ± 0.3
7,LKKGSQVEALFSYEATQPEDLEFQEWDIILVLSKVNEEWLEGECKGKVGIFPKVFVEDC,-0.809 ± 0.29
8,LKKGSQVEALFSYEATQPEDLEFQEHDIILVLSKVNEEWLEGECKGKVGIFPKVFVEDC,-0.398 ± 0.27
9,LKKGSQVEALFSYEATQPEDLEFQESDIILVLSKVNEEWLEGECKGKVGIFPKVFVEDC,-0.457 ± 0.098
10,LKKGSQVEALFSYEATQPEDLEFQEEDIILVLSKVNEEWLEGECKGKVGIFPKVFVEDC,-0.473 ± 0.36
11,LKKGSQVEALFSYEATQPEDLEFQERDIILVLSKVNEEWLEGECKGKVGIFPKVFVEDC,-0.464 ± 0.14
12,LKKGSQVEALFSYEATQPEDLEFQEVDIILVLSKVNEEWLEGECKGKVGIFPKVFVEDC,-0.407 ± 0.12
13,LKKGSQVEALFSYEATQPEDLEFQEMDIILVLSKVNEEWLEGECKGKVGIFPKVFVEDC,-0.103 ± 0.25
14,LKKGSQVEALFSYEATQPEDLEFQELDIILVLSKVNEEWLEGECKGKVGIFPKVFVEDC,-0.339 ± 0.12
15,LKKGSQVEALFSYEATQPEDLEFQWGDIILVLSKVNEEWLEGECKGKVGIFPKVFVEDC,-0.78 ± 0.36
16,LKKGSQVEALFSYEATQPEDLEFQLGDIILVLSKVNEEWLEGECKGKVGIFPKVFVEDC,-0.731 ± 0.17
17,LKKGSQVEALFSYEATQPEDLEFQVGDIILVLSKVNEEWLEGECKGKVGIFPKVFVEDC,-0.043 ± 0.078
18,LKKGSQVEALFSYEATQPEDLEFQSGDIILVLSKVNEEWLEGECKGKVGIFPKVFVEDC,-0.239 ± 0.092
19,LKKGSQVEALFSYEATQPEDLEFQCGDIILVLSKVNEEWLEGECKGKVGIFPKVFVEDC,-0.275 ± 0.14
20,LKKGSQVEALFSYEATQPEDLEFQTGDIILVLSKVNEEWLEGECKGKVGIFPKVFVEDC,0.035 ± 0.12
21,LKKGSQVEALFSYEATQPEDLEFQNGDIILVLSKVNEEWLEGECKGKVGIFPKVFVEDC,-0.015 ± 0.18
22,LKKGSQVEALFSYEATQPEDLEFQKGDIILVLSKVNEEWLEGECKGKVGIFPKVFVEDC,0.711 ± 0.13
23,LKKGSQVEALFSYEATQPEDLEFQGGDIILVLSKVNEEWLEGECKGKVGIFPKVFVEDC,-0.201 ± 0.1

row,Variant,abundance fitness
1,LKKGSQVEALFSYEATQPEDLEFQDGDIILVLSKVNEEWLEGECKGKVGIFPKVFVEDC,-0.9 ± 0.33
2,LKKGSQVEALFSYEATQPEDLEFQHGDIILVLSKVNEEWLEGECKGKVGIFPKVFVEDC,0.447 ± 0.31
3,LKKGSQVEALFSYEATQPEDLEFQPGDIILVLSKVNEEWLEGECKGKVGIFPKVFVEDC,-0.89 ± 0.27
4,LKKGSQVEALFSYEATQPEDLEFQMGDIILVLSKVNEEWLEGECKGKVGIFPKVFVEDC,-0.264 ± 0.34
5,LKKGSQVEALFSYEATQPEDLEFQIGDIILVLSKVNEEWLEGECKGKVGIFPKVFVEDC,-0.68 ± 0.23
6,LKKGSQVEALFSYEATQPEDLEFQEGDICLVLSKVNEEWLEGECKGKVGIFPKVFVEDC,-0.497 ± 0.12
7,LKKGSQVEALFSYEATQPEDLEFQEGDIALVLSKVNEEWLEGECKGKVGIFPKVFVEDC,-0.53 ± 0.15
8,LKKGSQVEALFSYEATQPEDLEFQEGDIELVLSKVNEEWLEGECKGKVGIFPKVFVEDC,-0.392 ± 0.22
9,LKKGSQVEALFSYEATQPEDLEFQEGDIDLVLSKVNEEWLEGECKGKVGIFPKVFVEDC,-0.41 ± 0.15
10,LKKGSQVEALFSYEATQPEDLEYQEGDIILVLSKVNEEWLEGECKGKVGIFPKVFVEDC,-0.517 ± 0.14
11,LKKGSQVEALFSYEATQPEDLESQEGDIILVLSKVNEEWLEGECKGKVGIFPKVFVEDC,-0.655 ± 0.13
12,LKKGSQVEALFSYEATQPEDLEVQEGDIILVLSKVNEEWLEGECKGKVGIFPKVFVEDC,-0.568 ± 0.16
13,LKKGSQVEALFSYEATQPEDLEWQEGDIILVLSKVNEEWLEGECKGKVGIFPKVFVEDC,-0.889 ± 0.37
14,LKKGSQVEALFSYEATQPEDLETQEGDIILVLSKVNEEWLEGECKGKVGIFPKVFVEDC,-0.772 ± 0.22
15,LKKGSQVEALFSYEATQPEDLEFQEGDSILVLSKVNEEWLEGECKGKVGIFPKVFVEDC,0.096 ± 0.072
16,LKKGSQVEALFSYEATQPEDLEFQEGDAILVLSKVNEEWLEGECKGKVGIFPKVFVEDC,-0.179 ± 0.13
17,LKKGSQVEALFSYEATQPEDLEFQEGDPILVLSKVNEEWLEGECKGKVGIFPKVFVEDC,0.054 ± 0.18
18,LKKGSQVEALFSYEATQPEDLEFQEGDDILVLSKVNEEWLEGECKGKVGIFPKVFVEDC,0.056 ± 0.13
19,LKKGSQVEALFSYEATQPEDLEFQEGDGILVLSKVNEEWLEGECKGKVGIFPKVFVEDC,-0.245 ± 0.095
20,LKKGSQVEALFSYEATQPEDLEFQEGDHILVLSKVNEEWLEGECKGKVGIFPKVFVEDC,0.116 ± 0.099
21,LKKGSQVEALFSYEATQPEDLEFQEGDVILVLSKVNEEWLEGECKGKVGIFPKVFVEDC,-0.264 ± 0.098
22,LKKGSQVEALFSYEATQPEDLEFQEGDRILVLSKVNEEWLEGECKGKVGIFPKVFVEDC,0.338 ± 0.075
